T1: full-length human p75 neurotrophin receptor fused at the cytoplasmic C-terminus to GFP (human, UniProt P08138 29-427)
T1 construct: As query against the GFP-tagged library it carried the opposite colour tag (mCherry); kept as one molecule; also called p75^NTR; NGFR; source: HEK293 suspension cells, transiently transfected, on cells; not shown: GFP, C-terminal, kept
T1 sequence (looked up): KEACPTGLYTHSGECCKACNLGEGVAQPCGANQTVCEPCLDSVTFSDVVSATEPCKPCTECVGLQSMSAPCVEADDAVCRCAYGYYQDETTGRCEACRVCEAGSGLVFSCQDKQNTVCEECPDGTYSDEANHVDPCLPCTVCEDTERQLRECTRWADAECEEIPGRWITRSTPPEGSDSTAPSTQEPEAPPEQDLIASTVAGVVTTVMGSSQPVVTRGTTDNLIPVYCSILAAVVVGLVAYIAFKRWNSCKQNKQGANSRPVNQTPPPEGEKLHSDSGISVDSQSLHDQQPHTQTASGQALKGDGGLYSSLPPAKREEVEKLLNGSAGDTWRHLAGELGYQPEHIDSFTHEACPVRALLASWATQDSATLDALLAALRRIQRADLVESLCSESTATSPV


Key:
CD28-GFP = biological target: T2, CD28-GFP (human, UniProt P10747 19-220); assay: flow cytometry on cells; cell-cell conjugates: HEK293F cells expressing 92 B7-1–mCherry point mutants (IgV domain) against HEK293F cells expressing CTLA-4–GFP, CD28-GFP or p75NTR-GFP; percent of WT binding; settings: partners not purified
T2 construct: human CD28, member of the human Ig superfamily library; source: HEK293F, transfected, on cells; not shown: GFP, C-terminal, kept

[1] = biological target: T1, full-length human p75 neurotrophin …; assay: as above; settings: partners not purified

Row | loss in binding relative to WT (CD28-GFP) [%] | loss in binding relative to WT [1] [%] | Binder
1 | > 25 | – | hB7-1 E41A–mCherry (ligand, human, UniProt P33681 35-288, looked up, human B7-1 (CD80), point mutant in the IgV domain; source: HEK293F, transfected, on cells) VIHVTKAVKEVATLSCGHNVSVEELAQTRIYWQKEKKMVLTMMSGDMNIWPEYKNRTIFDITNNLSIVILALRPSDEGTYECVVLKYEKDAFKREHLAEVTLSVKADFPTPSISDFEIPTSNIRRIICSTSGGFPEPHLSWLENGEELNAINTTVSQDPETELYAVSSKLDFNMTTNHSFMCLIKYGHLRVNQTFNWNTTKQEHFPDNLLPSWAITLISVNGIFVICCLTYCFAPRCRERRRNERLRRESVRPV
2 | > 25 | > 25 | hB7-1 K43D–mCherry (ligand, human, UniProt P33681 35-288, looked up, human B7-1 (CD80), point mutant in the IgV domain; source: HEK293F, transfected, on cells) VIHVTKEVDEVATLSCGHNVSVEELAQTRIYWQKEKKMVLTMMSGDMNIWPEYKNRTIFDITNNLSIVILALRPSDEGTYECVVLKYEKDAFKREHLAEVTLSVKADFPTPSISDFEIPTSNIRRIICSTSGGFPEPHLSWLENGEELNAINTTVSQDPETELYAVSSKLDFNMTTNHSFMCLIKYGHLRVNQTFNWNTTKQEHFPDNLLPSWAITLISVNGIFVICCLTYCFAPRCRERRRNERLRRESVRPV
3 | > 25 | – | hB7-1 K139D–mCherry (ligand, human, UniProt P33681 35-288, looked up, human B7-1 (CD80), point mutant in the IgV domain; source: HEK293F, transfected, on cells) VIHVTKEVKEVATLSCGHNVSVEELAQTRIYWQKEKKMVLTMMSGDMNIWPEYKNRTIFDITNNLSIVILALRPSDEGTYECVVLKYEKDAFKREHLAEVTLSVDADFPTPSISDFEIPTSNIRRIICSTSGGFPEPHLSWLENGEELNAINTTVSQDPETELYAVSSKLDFNMTTNHSFMCLIKYGHLRVNQTFNWNTTKQEHFPDNLLPSWAITLISVNGIFVICCLTYCFAPRCRERRRNERLRRESVRPV
4 | > 25 | – | hB7-1 K127D–mCherry (ligand, human, UniProt P33681 35-288, looked up, human B7-1 (CD80), point mutant in the IgV domain; source: HEK293F, transfected, on cells) VIHVTKEVKEVATLSCGHNVSVEELAQTRIYWQKEKKMVLTMMSGDMNIWPEYKNRTIFDITNNLSIVILALRPSDEGTYECVVLKYEKDAFDREHLAEVTLSVKADFPTPSISDFEIPTSNIRRIICSTSGGFPEPHLSWLENGEELNAINTTVSQDPETELYAVSSKLDFNMTTNHSFMCLIKYGHLRVNQTFNWNTTKQEHFPDNLLPSWAITLISVNGIFVICCLTYCFAPRCRERRRNERLRRESVRPV
5 | > 25 | > 25 | hB7-1 I36D–mCherry (ligand, human, UniProt P33681 35-288, looked up, human B7-1 (CD80), point mutant in the IgV domain; source: HEK293F, transfected, on cells) VDHVTKEVKEVATLSCGHNVSVEELAQTRIYWQKEKKMVLTMMSGDMNIWPEYKNRTIFDITNNLSIVILALRPSDEGTYECVVLKYEKDAFKREHLAEVTLSVKADFPTPSISDFEIPTSNIRRIICSTSGGFPEPHLSWLENGEELNAINTTVSQDPETELYAVSSKLDFNMTTNHSFMCLIKYGHLRVNQTFNWNTTKQEHFPDNLLPSWAITLISVNGIFVICCLTYCFAPRCRERRRNERLRRESVRPV
6 | > 25 | > 25 | hB7-1 T39A–mCherry (ligand, human, UniProt P33681 35-288, looked up, human B7-1 (CD80), point mutant in the IgV domain; source: HEK293F, transfected, on cells) VIHVAKEVKEVATLSCGHNVSVEELAQTRIYWQKEKKMVLTMMSGDMNIWPEYKNRTIFDITNNLSIVILALRPSDEGTYECVVLKYEKDAFKREHLAEVTLSVKADFPTPSISDFEIPTSNIRRIICSTSGGFPEPHLSWLENGEELNAINTTVSQDPETELYAVSSKLDFNMTTNHSFMCLIKYGHLRVNQTFNWNTTKQEHFPDNLLPSWAITLISVNGIFVICCLTYCFAPRCRERRRNERLRRESVRPV
7 | > 25 | – | hB7-1 V45D–mCherry (ligand, human, UniProt P33681 35-288, looked up, human B7-1 (CD80), point mutant in the IgV domain; source: HEK293F, transfected, on cells) VIHVTKEVKEDATLSCGHNVSVEELAQTRIYWQKEKKMVLTMMSGDMNIWPEYKNRTIFDITNNLSIVILALRPSDEGTYECVVLKYEKDAFKREHLAEVTLSVKADFPTPSISDFEIPTSNIRRIICSTSGGFPEPHLSWLENGEELNAINTTVSQDPETELYAVSSKLDFNMTTNHSFMCLIKYGHLRVNQTFNWNTTKQEHFPDNLLPSWAITLISVNGIFVICCLTYCFAPRCRERRRNERLRRESVRPV
8 | > 25 | – | hB7-1 L131D–mCherry (ligand, human, UniProt P33681 35-288, looked up, human B7-1 (CD80), point mutant in the IgV domain; source: HEK293F, transfected, on cells) VIHVTKEVKEVATLSCGHNVSVEELAQTRIYWQKEKKMVLTMMSGDMNIWPEYKNRTIFDITNNLSIVILALRPSDEGTYECVVLKYEKDAFKREHDAEVTLSVKADFPTPSISDFEIPTSNIRRIICSTSGGFPEPHLSWLENGEELNAINTTVSQDPETELYAVSSKLDFNMTTNHSFMCLIKYGHLRVNQTFNWNTTKQEHFPDNLLPSWAITLISVNGIFVICCLTYCFAPRCRERRRNERLRRESVRPV
9 | > 25 | – | hB7-1 R63D–mCherry (ligand, human, UniProt P33681 35-288, looked up, human B7-1 (CD80), point mutant in the IgV domain; source: HEK293F, transfected, on cells) VIHVTKEVKEVATLSCGHNVSVEELAQTDIYWQKEKKMVLTMMSGDMNIWPEYKNRTIFDITNNLSIVILALRPSDEGTYECVVLKYEKDAFKREHLAEVTLSVKADFPTPSISDFEIPTSNIRRIICSTSGGFPEPHLSWLENGEELNAINTTVSQDPETELYAVSSKLDFNMTTNHSFMCLIKYGHLRVNQTFNWNTTKQEHFPDNLLPSWAITLISVNGIFVICCLTYCFAPRCRERRRNERLRRESVRPV
10 | – | > 25 | hB7-1 Y121D–mCherry (ligand, human, UniProt P33681 35-288, looked up, human B7-1 (CD80), point mutant in the IgV domain; source: HEK293F, transfected, on cells) VIHVTKEVKEVATLSCGHNVSVEELAQTRIYWQKEKKMVLTMMSGDMNIWPEYKNRTIFDITNNLSIVILALRPSDEGTYECVVLKDEKDAFKREHLAEVTLSVKADFPTPSISDFEIPTSNIRRIICSTSGGFPEPHLSWLENGEELNAINTTVSQDPETELYAVSSKLDFNMTTNHSFMCLIKYGHLRVNQTFNWNTTKQEHFPDNLLPSWAITLISVNGIFVICCLTYCFAPRCRERRRNERLRRESVRPV
11 | > 25 | > 25 | hB7-1 S49A–mCherry (ligand, human, UniProt P33681 35-288, looked up, human B7-1 (CD80), point mutant in the IgV domain; source: HEK293F, transfected, on cells) VIHVTKEVKEVATLACGHNVSVEELAQTRIYWQKEKKMVLTMMSGDMNIWPEYKNRTIFDITNNLSIVILALRPSDEGTYECVVLKYEKDAFKREHLAEVTLSVKADFPTPSISDFEIPTSNIRRIICSTSGGFPEPHLSWLENGEELNAINTTVSQDPETELYAVSSKLDFNMTTNHSFMCLIKYGHLRVNQTFNWNTTKQEHFPDNLLPSWAITLISVNGIFVICCLTYCFAPRCRERRRNERLRRESVRPV
12 | > 25 | > 25 | hB7-1 Y65A–mCherry (ligand, human, UniProt P33681 35-288, looked up, human B7-1 (CD80), point mutant in the IgV domain; source: HEK293F, transfected, on cells) VIHVTKEVKEVATLSCGHNVSVEELAQTRIAWQKEKKMVLTMMSGDMNIWPEYKNRTIFDITNNLSIVILALRPSDEGTYECVVLKYEKDAFKREHLAEVTLSVKADFPTPSISDFEIPTSNIRRIICSTSGGFPEPHLSWLENGEELNAINTTVSQDPETELYAVSSKLDFNMTTNHSFMCLIKYGHLRVNQTFNWNTTKQEHFPDNLLPSWAITLISVNGIFVICCLTYCFAPRCRERRRNERLRRESVRPV
13 | > 25 | > 25 | hB7-1 K40D–mCherry (ligand, human, UniProt P33681 35-288, looked up, human B7-1 (CD80), point mutant in the IgV domain; printed once as K40D and once as Y40D; also called Y40D; source: HEK293F, transfected, on cells) VIHVTDEVKEVATLSCGHNVSVEELAQTRIYWQKEKKMVLTMMSGDMNIWPEYKNRTIFDITNNLSIVILALRPSDEGTYECVVLKYEKDAFKREHLAEVTLSVKADFPTPSISDFEIPTSNIRRIICSTSGGFPEPHLSWLENGEELNAINTTVSQDPETELYAVSSKLDFNMTTNHSFMCLIKYGHLRVNQTFNWNTTKQEHFPDNLLPSWAITLISVNGIFVICCLTYCFAPRCRERRRNERLRRESVRPV
14 | > 25 | – | hB7-1 I36A–mCherry (ligand, human, UniProt P33681 35-288, looked up, human B7-1 (CD80), point mutant in the IgV domain; source: HEK293F, transfected, on cells) VAHVTKEVKEVATLSCGHNVSVEELAQTRIYWQKEKKMVLTMMSGDMNIWPEYKNRTIFDITNNLSIVILALRPSDEGTYECVVLKYEKDAFKREHLAEVTLSVKADFPTPSISDFEIPTSNIRRIICSTSGGFPEPHLSWLENGEELNAINTTVSQDPETELYAVSSKLDFNMTTNHSFMCLIKYGHLRVNQTFNWNTTKQEHFPDNLLPSWAITLISVNGIFVICCLTYCFAPRCRERRRNERLRRESVRPV
15 | > 25 | – | hB7-1 E69A–mCherry (ligand, human, UniProt P33681 35-288, looked up, human B7-1 (CD80), point mutant in the IgV domain; source: HEK293F, transfected, on cells) VIHVTKEVKEVATLSCGHNVSVEELAQTRIYWQKAKKMVLTMMSGDMNIWPEYKNRTIFDITNNLSIVILALRPSDEGTYECVVLKYEKDAFKREHLAEVTLSVKADFPTPSISDFEIPTSNIRRIICSTSGGFPEPHLSWLENGEELNAINTTVSQDPETELYAVSSKLDFNMTTNHSFMCLIKYGHLRVNQTFNWNTTKQEHFPDNLLPSWAITLISVNGIFVICCLTYCFAPRCRERRRNERLRRESVRPV
16 | > 25 | – | hB7-1 K120D–mCherry (ligand, human, UniProt P33681 35-288, looked up, human B7-1 (CD80), point mutant in the IgV domain; source: HEK293F, transfected, on cells) VIHVTKEVKEVATLSCGHNVSVEELAQTRIYWQKEKKMVLTMMSGDMNIWPEYKNRTIFDITNNLSIVILALRPSDEGTYECVVLDYEKDAFKREHLAEVTLSVKADFPTPSISDFEIPTSNIRRIICSTSGGFPEPHLSWLENGEELNAINTTVSQDPETELYAVSSKLDFNMTTNHSFMCLIKYGHLRVNQTFNWNTTKQEHFPDNLLPSWAITLISVNGIFVICCLTYCFAPRCRERRRNERLRRESVRPV

Reference: PMC9663165, “Human immunomodulatory ligand B7-1 mediates synaptic remodeling via the p75 neurotrophin receptor” (The Journal of Clinical Investigation, 2022)
